Assays:
[1] = target: all three receptor C-tails (ADRB1, M1 and CALCR); experiment: pull-down; GST-fused receptor C-tails immobilized on glutathione-Sepharose beads, incubated with [35S]-labelled in vitro translated GASPs 1 h at 4°C; 20 mM Tris-HCl pH 7.4, 150 mM NaCl, 1 mM EDTA, 1 mM DTT, 10% glycerol, 1% Triton X-100; Phosphor-imager quantification
[2] = target: the four receptor C-tails (ADRB1, M1, CALCR and TXA2); experiment: pull-down; competition: synthetic peptide (1 to 250 µM, or 150 µM) against [35S]-labelled GASPs for GST-fused C-tails; the peptide and the C-tail
[3] = target: GST-fused C-tail of the β1 adrenergic receptor (residues 373–477); experiment: as above
[4] = target: GST-fused C-tail of the type III transforming growth factor β receptor (residues 805–849); experiment: pull-down; GST-fused receptor C-tails immobilized on glutathione-Sepharose beads, incubated with [35S]-labelled in vitro translated GASPs 1 h at 4°C; 20 mM Tris-HCl pH 7.4, 150 mM NaCl, 1 mM EDTA, 1 mM DTT, 10% glycerol, 1% Triton X-100; Phosphor-imager quantification
Chain of GST-fused C-tail of the type III transforming growth factor β receptor (residues 805–849) (Q03167 805-849): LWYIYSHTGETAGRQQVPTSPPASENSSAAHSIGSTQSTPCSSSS

[5] = target: GST-fused C-tail of the β1 adrenergic receptor (residues 373–477); experiment: as above
[6] = target: GST-fused C-tail of the α isoform of the thromboxane A2 receptor (residues 304–343); experiment: as above
[7] = target: GST-fused C-tail of the histamine 2 receptor (residues 284–349); experiment: as above
Chain of GST-fused C-tail of the histamine 2 receptor (residues 284–349) (P25021 284-349): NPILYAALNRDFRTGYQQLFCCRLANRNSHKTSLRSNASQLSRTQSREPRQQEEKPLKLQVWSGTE

[8] = target: GST-fused C-tail of the δ-opioid receptor (residues 314–372); experiment: as above
[9] = target: T1, GST-fused C-tail of the calcitonin receptor (residues 407–490); experiment: as above
T1 sequence (P30988 whole entry, species assumed, looked up): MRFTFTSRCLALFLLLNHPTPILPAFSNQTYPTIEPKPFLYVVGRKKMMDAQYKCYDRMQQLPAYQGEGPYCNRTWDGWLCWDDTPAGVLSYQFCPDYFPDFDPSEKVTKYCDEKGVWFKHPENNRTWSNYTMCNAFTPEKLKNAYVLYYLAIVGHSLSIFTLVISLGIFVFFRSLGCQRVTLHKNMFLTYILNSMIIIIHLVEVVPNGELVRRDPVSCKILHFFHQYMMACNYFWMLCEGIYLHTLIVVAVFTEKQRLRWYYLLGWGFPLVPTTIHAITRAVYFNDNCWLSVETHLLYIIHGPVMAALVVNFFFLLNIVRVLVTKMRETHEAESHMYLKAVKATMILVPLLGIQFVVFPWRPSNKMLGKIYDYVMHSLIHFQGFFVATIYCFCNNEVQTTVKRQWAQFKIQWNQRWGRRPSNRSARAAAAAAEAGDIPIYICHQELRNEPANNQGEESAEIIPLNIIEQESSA

[10] = target: GST-fused C-tail of the muscarinic M1 acetylcholine receptor (residues 414–460); experiment: as above
[11] = target: GST-fused C-tail of the insulin growth factor I receptor (residues 1268–1367); experiment: as above
Chain of GST-fused C-tail of the insulin growth factor I receptor (residues 1268–1367) (P08069 1268-1367): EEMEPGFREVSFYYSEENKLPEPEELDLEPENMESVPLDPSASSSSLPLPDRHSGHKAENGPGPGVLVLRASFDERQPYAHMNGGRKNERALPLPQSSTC

free GST = experiment: as above
[12] = target: GST-fused C-tail of the β1 adrenergic receptor (residues 373–477); experiment: pull-down; data not shown; GST-ADRB1 C-tail with GASP-1 fragment 924–1395

B1: GASP-2 truncated mutant 377–838 (domain or fragment)
chain: QEPRFEEEVIIGSWFWAEKEASLEGGASAICESEPGTEEGAIGGSAYWAEEKSSLGAVAREEAKPESEEEAIFGSWFWDRDEACFDLNPCPVYKVSDRFRDAAEELNASSRPQTWDEVTVEFKPGLFHGVGFRSTSPFGIPEEASEMLEAKPKNLELSPEGEEQESLLQPDQPSPEFTFQYDPSYRSVREIREHLRARESAESESWSCSCIQCELKIGSEEFEEFLLLMDKIRDPFIHEISKIAMGMRSASQFTRDFIRDSGVVSLIETLLNYPSSRVRTSFLENMIHMAPPYPNLNMIETFICQVCEETLAHSVDSLEQLTGIRMLRHLTMTIDYHTLIANYMSGFLSLLTTANARTKFHVLKMLLNLSENPAVAKKLFSAKALSIFVGLFNIEETNDNIQIVIKMFQNISNIIKSGKMSLIDDDFSLEPLISAFREFEELAKQLQAQIDNQNDPEVGQQS
modifications: [35S]-methionine labelled
- percent of the full-length GASP-2 interaction (% of the full-length GASP-2 interaction) [1]: 30 to 60

Binder: RVKQEPRFEEEVIIGSWFWAEKEA [GASP peptide]
- percent of GASP-1, -2 and -7 retained with 150 µM GASP peptide, of the control without peptide [2]: 6 to 35 % of control
- percent inhibition of GASP-2 binding at 100 µM peptide [3]: 65%
- percent inhibition of GASP-2 binding at 250 µM peptide [3]: 76%

B2: GASP-6 (natural protein)
chain: MGYARKVGWVTAGLVIGAGACYCIYRLTRGRKQNKEKMAEGGSGDVDDAGDCSGARYNDWSDDDDDSNESKSIVWYPPWARIGTEAGTRARARARARATRARRAVQKRASPNSDDTVLSPQELQKVLCLVEMSEKPYILEAALIALGNNAAYAFNRDIIRDLGGLPIVAKILNTRDPIVKEKALIVLNNLSVNAENQRRLKVYMNQVCDDTITSRLNSSVQLAGLRLLTNMTVTNEYQHMLANSISDFFRLFSAGNEETKLQVLKLLLNLAENPAMTRELLRAQVPSSLGSLFNKKENKEVILKLLVIFENINDNFKWEENEPTQNQFGEGSLFFFLKEFQVCADKVLGIESHHDFLVKVKVGKFMAKLAEHMFPKSQE
modifications: [35S]-methionine labelled
- percent of GASP input retained (% of GASP input) [4]: < 1
- percent of GASP input retained (% of GASP input) [5]: 2
- percent of GASP input retained (% of GASP input) [6]: 2
- percent of GASP input retained (% of GASP input) [7]: 2
- percent of GASP input retained (% of GASP input) [8]: 2
- percent of GASP input retained (% of GASP input) [9]: 2
- percent of GASP input retained (% of GASP input) [10]: 2
- percent of GASP input retained (% of GASP input) [11]: < 1
- percent of GASP input retained (% of GASP input) (free GST): < 1

B3: GASP-1 truncated mutant 380–1073 (central domain), in vitro translated (domain or fragment)
chain: MTKEEAKTKARARAKQEARSEEEALIGTWFWATDESSMADEASIESSLQVEDESIIGSWFWTEEEASMGTGASSKSRPRTDGERIGDSLFGAREKTSMKTGAEATSESILAADDEQVIIGSWFWAGEEVNQEAEEETIFGSWFWVIDAASVESGVGVSCESRTRSEEEEVIGPWFWSGEQVDIEAGIGEEARPGAEEETIFGSWFWAENQTYMDCRAETSCDTMQGAEEEEPIIGSWFWTRVEACVEGDVNSKSSLEDKEEAMIPCFGAKEEVSMKHGTGVRCRFMAGAEETNNKSCFWAEKEPCMYPAGGGSWKSRPEEEEDIVNSWFWSRKYTKPEAIIGSWLWATEESNIDGTGEKAKLLTEEETIINSWFWKEDEAISEATDREESRPEAEEGDIIGSWFWAGEEDRLEPAAETREEDRLAAEKEGIVGSWFGAREETIRREAGSCSKSSPKAEEEEVIIGSWFWEEEASPEAVAGVGFESKPGTEEEEITVGSWFWPEEEASIQAGSQAVEEMESETEEETIFGSWFWDGKEVSEEAGPCCVSKPEDDEEMIVESWFWSRDKAIKETGTVATCESKPENEEGAIVGSWFEAEDEVDNRTDNGSNCGSRTLADEDEAIVGSWFWAGDEAHFESNPSPVFRAICRSTCSVEQEPDPSRRPQSWEEVTVQFKPGPWGRVGFPSISPFRFPKE
modifications: [35S]-methionine labelled
- percent of the full-length GASP-1 interaction (% of the full-length GASP-1 interaction) [5]: 70
- percent of the full-length GASP-1 interaction (% of the full-length GASP-1 interaction) [8]: 30
- percent of the full-length GASP-1 interaction (% of the full-length GASP-1 interaction) [10]: 70

B4: GASP-1 fragment corresponding to amino acids 924 to 1395 (domain or fragment)
chain: CCVSKPEDDEEMIVESWFWSRDKAIKETGTVATCESKPENEEGAIVGSWFEAEDEVDNRTDNGSNCGSRTLADEDEAIVGSWFWAGDEAHFESNPSPVFRAICRSTCSVEQEPDPSRRPQSWEEVTVQFKPGPWGRVGFPSISPFRFPKEAASLFCEMFGGKPRNMVLSPEGEDQESLLQPDQPSPEFPFQYDPSYRSVQEIREHLRAKESTEPESSSCNCIQCELKIGSEEFEELLLLMEKIRDPFIHEISKIAMGMRSASQFTRDFIRDSGVVSLIETLLNYPSSRVRTSFLENMIRMAPPYPNLNIIQTYICKVCEETLAYSVDSPEQLSGIRMIRHLTTTTDYHTLVANYMSGFLSLLATGNAKTRFHVLKMLLNLSENLFMTKELLSAEAVSEFIGLFNREETNDNIQIVLAIFENIGNNIKKETVFSDDDFNIEPLISAFHKVEKFAKELQGKTDNQNDPEGDQEN
modifications: [35S]-methionine labelled
- percent of input retained (% of the input) [12]: 5

B5: GASP-1 truncated mutant 1025–1395 (conserved C-terminal domain) (domain or fragment)
chain: ICRSTCSVEQEPDPSRRPQSWEEVTVQFKPGPWGRVGFPSISPFRFPKEAASLFCEMFGGKPRNMVLSPEGEDQESLLQPDQPSPEFPFQYDPSYRSVQEIREHLRAKESTEPESSSCNCIQCELKIGSEEFEELLLLMEKIRDPFIHEISKIAMGMRSASQFTRDFIRDSGVVSLIETLLNYPSSRVRTSFLENMIRMAPPYPNLNIIQTYICKVCEETLAYSVDSPEQLSGIRMIRHLTTTTDYHTLVANYMSGFLSLLATGNAKTRFHVLKMLLNLSENLFMTKELLSAEAVSEFIGLFNREETNDNIQIVLAIFENIGNNIKKETVFSDDDFNIEPLISAFHKVEKFAKELQGKTDNQNDPEGDQEN
modifications: [35S]-methionine labelled
- percent of the full-length GASP-1 interaction (% of the full-length GASP-1 interaction) [8]: 25
